# Legend:
# Siglec-7-ECD [1] = target: T1, Siglec-7-ECD (human, UniProt Q9Y286 19-353); experiment: bio-layer interferometry (ForteBio): antibody captured on the sensor, Siglec-7-ECD as analyte, 1:1 global fit
# T1 construct: also called p75; AIRM
# Procedure: A panel of antibodies was evaluated for binding to Siglec-7. The results identified anti-Siglec-7 antibodies that have improved KD values compared to commercially available anti-Siglec-7 antibodies (FIG. 7).
# Antibody binding analysis was carried out by bio-layer interferometry (ForteBio). […] Antibodies were captured on anti-mouse kinetic sensors at 0.5 ug/mL; Siglec-7-ECD was used as analyte and diluted in assay buffer from 50 nM to 1.56 nM with 2× dilutions. Two-minute associations were conducted, followed by 10-minute dissociations. Results were determined relative to a control empty reference AHC sensor, and analyzed using ForteBio analysis software with 1:1 global fit parameters.
# Siglec-7-ECD [2] = target: T1, Siglec-7-ECD; experiment: value quoted in the legend box of the internalization graph; same value as in the Figure 7 table (bio-layer interferometry)
# Siglec-7-ECD-Fc = target: T2, Siglec-7-ECD-Fc (human, UniProt Q9Y286 19-353); experiment: ligand blocking on cells, flow cytometry: antibody dilutions pre-mixed with 10 nM Siglec-7-ECD-Fc, then binding of Siglec-7-ECD-Fc to Siglec-7 ligands on A375 melanoma cells
# T2 construct: also called recombinant Siglec-7-Fc fusion protein; Siglec-7-Fc; not shown: human Fc (huFc)
# Procedure: Recombinant Siglec-7-Fc was added to A375 cells in the presence of anti-Siglec-7 antibodies at increasing concentrations and binding of the complex was detected on the cell surface.
# Human melanoma cell line A375, which expresses high level of ligands for Siglec-7, was used to determine the blocking activity of anti-Siglec-7 antibodies in a cell based assay. Two-fold serial dilutions of anti-Siglec-7 antibodies (40 nM to 40 pM) were combined with 10 nM Siglec-7-ECD-Fc in FACS buffer (PBS/2% BSA) and incubated on ice for 30 minutes. 2.5×10e4 A375 cells per well were added to round bottom 96-well tissue culture plates in FACS buffer, plates were centrifuged at 400 g for 2 min, supernatant was removed and cells were re-suspended in 100 ul of the antibody-Siglec-7 complexes. After a 1 hour incubation on ice, cells were washed twice and incubated for 30 minutes with goat anti-human F(ab′)₂ fragment conjugated to AF647 (Jackson IR labs) at 1 ug/ml in FACS buffer. After two more washes, cells were fixed in PBS/2% PFA and acquired on a Novocyte flow cytometer (ACEA biosciences). IC₅₀ values for blocking were determined based on plotting mean fluorescence in the APC channel and analysis using Prism Graphpad software.
# [3] = target: Siglec-7 on primary human cells (NK cells, CD8+ tumor-infiltrating T cells) (human) (UniProt Q9Y286)
# [4] = target: Siglec-7 on primary human cells (NK cells, CD8+ tumor-infiltrating T cells) (human) (UniProt Q9Y286); remark: listed apart in the source
# [5] = target: T3, Siglec-7 on primary human cells (NK cells, CD8+ tumor-infiltrating T cells) (human, UniProt Q9Y286 19-467); experiment: cell-based or functional assay
# [6] = target: T3, Siglec-7 on primary human cells (NK …); experiment: cell-based or functional assay; remark: listed apart in the source
# T3 sequence (Q9Y286 19-467 limits assumed): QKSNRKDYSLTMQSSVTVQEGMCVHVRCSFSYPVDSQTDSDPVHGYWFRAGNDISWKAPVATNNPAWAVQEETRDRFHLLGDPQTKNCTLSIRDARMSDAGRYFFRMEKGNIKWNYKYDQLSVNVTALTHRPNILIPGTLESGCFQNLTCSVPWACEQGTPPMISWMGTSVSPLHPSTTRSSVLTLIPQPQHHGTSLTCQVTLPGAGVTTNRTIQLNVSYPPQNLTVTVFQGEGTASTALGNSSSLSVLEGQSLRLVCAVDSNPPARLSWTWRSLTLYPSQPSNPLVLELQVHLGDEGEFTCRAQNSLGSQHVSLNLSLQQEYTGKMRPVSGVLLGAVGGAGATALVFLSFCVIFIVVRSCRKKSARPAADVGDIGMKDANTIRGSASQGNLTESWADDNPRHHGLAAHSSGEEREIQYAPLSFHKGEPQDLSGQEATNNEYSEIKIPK
# Siglec-7 on primary human cells (NK cells, CD8+ tumor-infiltrating T cells) (human), sequence (Q9Y286 19-467 limits assumed): as above
# T2 sequence (Q9Y286 19-353): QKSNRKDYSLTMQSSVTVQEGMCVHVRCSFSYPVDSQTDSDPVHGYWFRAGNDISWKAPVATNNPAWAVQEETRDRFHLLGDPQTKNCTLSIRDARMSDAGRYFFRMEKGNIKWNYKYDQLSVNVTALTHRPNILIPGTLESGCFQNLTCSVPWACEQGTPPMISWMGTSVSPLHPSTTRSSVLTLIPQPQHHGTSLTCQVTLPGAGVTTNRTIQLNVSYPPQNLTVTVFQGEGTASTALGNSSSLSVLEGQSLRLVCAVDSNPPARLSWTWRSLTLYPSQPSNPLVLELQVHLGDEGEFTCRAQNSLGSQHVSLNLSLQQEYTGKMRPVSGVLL
# T1 sequence (Q9Y286 19-353 limits assumed): as the sequence (Q9Y286 19-353) above
molecule,measurement,setting,value
anti-Siglec-7 antibody clone S7.7 (BioLegend),Kd,Siglec-7-ECD [1],0.422 nM
same,Kd,Siglec-7-ECD [2],0.422 nM
same,IC50,Siglec-7-ECD-Fc,4.26 nM
same,IC50 (read off the curve),[3],0.07 µg/mL
same,"IC50 of Siglec-7 internalization on NK cells (24 h, PBMC; remaining surface Siglec-7 stained with 4B12-AF647)",[4],0.469 nM
QA79 (antibody),Kd,Siglec-7-ECD [1],0.706 nM
same,IC50,Siglec-7-ECD-Fc,7.49 nM
same,"IC50 of Siglec-7 internalization on NK cells (24 h, PBMC; remaining surface Siglec-7 stained with 4B12-AF647)",[4],0.326 nM
"monoclonal antibody 16H11 (antibody, V domains shown, Parental antibody; The Methods capture antibodies on anti-mouse sensors) VH: QVQLHQSGAELVKPGASVKISCKGSGYDFSNFWMNWVKQRPGKGLEWIGQIYPGDGEIKYNGKFKGKATLTADESSSTAYIHLSSLTSEDSAVYFCARDDYLRAMDYWGQGTSVTVSS VL: DIQMTQSPASLSASVGETVTITCRASGNIHNYLAWFQQKQGKSPHFLVYSAKALADGVPSRFSGSGSGTQYSLKINSLQPEDFGTYYCQHFWSSPYTFGGGTKLEIK",Kd,Siglec-7-ECD [1],0.035 nM
same,"IC50 of Siglec-7 internalization on NK cells (24 h, PBMC; remaining surface Siglec-7 stained with 4B12-AF647)",[5],0.0106 nM
same,IC50,Siglec-7-ECD-Fc,7.42 nM
"2G12 (antibody, V domains shown) VH: QVQLQQPGAELVKPGASVKLSCKASGYTFTSYWMQWVKQRPGQGLEWIGEIDPSVSYTEYNQKFKGKATLTVDTSSSTAYMQLSSLTSEDSAVYFCARWSKDYYGMDYWGQGTSVTVSS VL: DIVLTQSHKFMSTSVGDRVTITCKASQDVSTAVAWYQQKPGQSPKLLIYWTSTRHTGVPDRFTGSGSGTDHTLTISSVQAEDLALYYCHQQYSTPPTFGGGTKLEIK",Kd,Siglec-7-ECD [1],0.205 nM
same,"IC50 of Siglec-7 internalization on NK cells (24 h, PBMC; remaining surface Siglec-7 stained with 4B12-AF647)",[5],0.0673 nM
same,IC50,Siglec-7-ECD-Fc,19.8 nM
9D4 (antibody) heavy chain variable region: QVTLKESGPGILQPSQTLSLTCSFSGFSLSTFGMGVGWIRQPSGKGLEWLAHIWWDDDKYYHPALKSRLTISKDTSNNQVFLKIANVDTAETATFYCARVERGYPLDHWGQGTTLRVSS light chain variable region: DIVLTQSPASLAVSLGQRATISCRASQSVSSSSYSYMHWYQQKPGQPPKLLIKYASNLKSGVPARFSGSGSGTDFTLTIHPVEEEDTATYYCQHSWEIPPTFGGGTKLEIK,Kd,Siglec-7-ECD [1],0.76 nM
same,"IC50 of Siglec-7 internalization on NK cells (24 h, PBMC; remaining surface Siglec-7 stained with 4B12-AF647)",[5],0.0875 nM
same,IC50,Siglec-7-ECD-Fc,1.41 nM
"5G10 (antibody, V domains shown) VH: EVKLEESGGGLVQPGGSMKVSCVASGFTFSNYWMNWVRQSPEKGLEWVAQIRLKSDNYATHYAESVKGRFTISRDDSKSSVYLQMNNLRAEDTGIYYCTEGDYDIFAYWGQGTLVTVSA VL: DIQMTQTTSSLSASLGDRVTISCSASQGITNYLNWYQQKPDGTVKLLIYYTSILHSGVPSRFSGSGSGTDYSLTISNLEPEDIATYYCQQYSKPPYTFGGGTKLEIK",Kd,Siglec-7-ECD [1],0.001 nM
same,"IC50 of Siglec-7 internalization on NK cells (24 h, PBMC; remaining surface Siglec-7 stained with 4B12-AF647)",[5],0.206 nM
same,IC50,Siglec-7-ECD-Fc,3.07 nM
"monoclonal antibody 3F1 (antibody, V domains shown) VH: EFQLQQSGPEMVKPGASVKMSCKASGDSFTDYKINWVKQNNGKSLEWIGVINPDSGTTSYNQIFEGKATLTVDQSSSTAYMQVNRLTSEDSAVYYCTTWDDYSFYAMDYWGQGTSVTVSS VL: DVLMTQTPLSLPVSLGDQASISCRSSQNIVHSNGNTYLEWFLQKPGQSPKLLIYKVSNRFSGVPDRFSGSGSGTDFTLKISRVEAEDLGVYYCFQGSHIPWTFGGGTKLEIK",Kd,Siglec-7-ECD [1],0.041 nM
same,Kd,Siglec-7-ECD [2],0.041 nM
same,IC50 (read off the curve),[6],~0.001 µg/mL
same,"IC50 of Siglec-7 internalization on NK cells (24 h, PBMC; remaining surface Siglec-7 stained with 4B12-AF647)",[5],0.013 nM
same,IC50,Siglec-7-ECD-Fc,8.5 nM
"10E11 (antibody, V domains shown) VH: EVQLQQSGPELVKPGDSVKISCKASGYSSTGYFMNWVMQSHGKSLEWIGRIIPYNGDTFYNQKFKDKATLTVDKSSNTAHLELRSLTSEDSVVYYCAGPRIGGDYDGGSWLAYWGQGTLVTVSA VL: DIVMTQSQKFMSTTVGDRVSITCKASQNVGTAVAWYQQKPGHSPKLLIYSASNRYTGVPDRFTGSGYGTDFTLTISNMQSEDLADYFCQQYNSYPLTFGAGTKLELK",Kd,Siglec-7-ECD [1],0.522 nM
same,"IC50 of Siglec-7 internalization on NK cells (24 h, PBMC; remaining surface Siglec-7 stained with 4B12-AF647)",[5],0.0493 nM
same,IC50,Siglec-7-ECD-Fc,6.23 nM

# — patent US20190194323A1 (ALLAKOS, published 2019)
